Here are results for two molecules from publication PMC3706957, “Ion Mobility Spectrometry-Mass Spectrometry of Intrinsically Unfolded Proteins: Trying to Put Order into Disorder” (Current Analytical Chemistry, 2013).

Series [1] addresses osteocalcin_(17-49) proteolysis fragment (bovine). Kind of series: native MS; ESI-IMS-MS of the limited proteolysis mixture of full length calcium-bound holo-osteocalcin at neutral pH (enzyme:substrate 1:300, ammonium acetate); dimer seen as 6+ ions in the drift time distribution of the 3+ ions.
Series [2] concerns the molecule itself. Kind of series: native MS; ESI-IMS-MS (nanoESI, travelling wave ion mobility), pH 7, 20 mM ammonium acetate (methods) or 1:1 5 mM ammonium acetate: ammonium formate; protein alone and with Ca^2+, Cu^+ or Zn^2+ salt at protein:salt 1:10; dimer told apart from monomer by drift time and isotope pattern; dimer peak increased significantly with metal ions.

Bridge positions count the residues as written; N and C are the ends. Square brackets hold non-standard residues; d marks the D form. Ends that are not written are not given here. Gla = N[C@@H](CC(C(=O)O)C(=O)O)C(=O)O

With “osteocalcin_(17-49) proteolysis fragment (domain or fragment)”, the stoichiometry N in series [1] was 2.

B1: bovine osteocalcin (natural protein, UniProt P02820 52-100, looked up)
chain: YLDHWLGAPAPYPDPL[Gla]PKR[Gla]VC[Gla]LNPDCDELADHIGFQEAYRRFYGPV
modifications: disulfide 23-29
notes: also called apo-osteocalcin; apo-OST; source: purified from bovine bone tissue (EDTA extraction, size exclusion and ion exchange chromatography)
As to B1, the “stoichiometry N” value in series [2] is 2.
